The subject of the data set is NCCCC(=O)O. Nature of the data set: purified protein. The note with it: fixed pyruvate (6 mM), TAPS pH 9.0, 50 µM PLP, 30 °C.

The source of these data is article doi:10.1101/2025.05.23.655777v1.

For orientation: Km means the substrate concentration at which the rate is half of its maximum. For orientation: kcat means the maximal rate divided by the concentration of active sites. For “GABA-AT; GABA aminotransferase 1 (recombinant) (Arabidopsis thaliana)”, the Michaelis constant (Km) was found to be 590 ± 200 µM and the turnover number (kcat) worked out at 4.97 s⁻¹.
